# Measurements taken from PMC3472187, “Crystal structure of HutZ, a heme storage protein from Vibrio cholerae: A structural mismatch observed in the region of high sequence conservation” (BMC Structural Biology, 2012).
# Molecular target: the molecule itself
# Test: SEC
protein,measurement,value
"HutZ (residues 13-150, His tagged) (domain or fragment, also called truncated HutZ; source: E. coli BL21 (DE3), purified (Ni-chelating Sepharose, Source 15Q, Superdex-200)) RLEPEIKEFRQERKTLQLATVDAQGRPNVSYAPFVQNQEGYFVLISHIARHARNLEVNPQVSIMMIEDETEAKQLFARKRLTFDAVASMVERDSELWCQVIAQMGERFGEIIDGLSQLQDFMLFRLQPEQGLFVKGFG",stoichiometry N,2
